T1: Leucine-Rich Repeat and Ig Domain Protein 1 (LINGO1) (UniProt Q96FE5 42-620, limits assumed)
T1 construct: whole, on cells; It is endogenous on Ewing sarcoma cell lines and transduced in K562 cells
T1 sequence (looked up): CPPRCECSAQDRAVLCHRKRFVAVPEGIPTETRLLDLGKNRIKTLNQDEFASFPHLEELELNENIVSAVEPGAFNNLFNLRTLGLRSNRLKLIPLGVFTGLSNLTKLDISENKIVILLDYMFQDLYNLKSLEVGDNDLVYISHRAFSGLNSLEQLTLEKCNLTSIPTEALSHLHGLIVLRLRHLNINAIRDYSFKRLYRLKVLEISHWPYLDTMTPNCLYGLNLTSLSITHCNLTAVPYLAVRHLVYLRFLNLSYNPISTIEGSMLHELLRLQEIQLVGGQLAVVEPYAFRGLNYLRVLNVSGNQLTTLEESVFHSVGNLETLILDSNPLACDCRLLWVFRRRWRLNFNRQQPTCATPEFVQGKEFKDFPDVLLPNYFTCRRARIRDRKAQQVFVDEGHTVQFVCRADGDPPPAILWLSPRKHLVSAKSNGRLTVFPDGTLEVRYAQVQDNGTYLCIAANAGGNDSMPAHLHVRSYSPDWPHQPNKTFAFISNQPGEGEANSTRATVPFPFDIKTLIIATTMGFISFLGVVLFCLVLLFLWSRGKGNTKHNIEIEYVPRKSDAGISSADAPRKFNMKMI


Target: T1, Leucine-Rich Repeat and Ig Domain …
Test: flow cytometry on Ewing sarcoma cell lines; scFv detected with anti-FLAG/APC secondary antibody
Protocol: FIGS. 4A-4I show LINGO1-specific CAR T cells show cytotoxic activity against Ewing sarcoma. (FIG. 4A) mRNA expression of LINGO1 and GAPDH housekeeping gene in Ewing sarcoma cell lines and healthy brain tissue as determined by RT-PCR. (FIG. 4B) Schema of CAR construct and four LINGO1-specific scFv domains (FIG. 4C) Binding of LINGO1-specific scFvs at 5 µg/ml and secondary staining with an anti-FLAG/APC antibody (clone: L5). against Ewing sarcoma cell lines as determined by flow cytometry. Secondary antibody alone is shown in grey. (FIG. 4D) LINGO1 CAR surface expression on primary T cells after staining with an anti-HA/APC antibody as determined by flow cytometry. (FIG. 4E) IFNγ secretion as determined by ELISA and (FIG. 4F) anti-tumor activity as determined by luminescence-based cytotoxicity assay of CAR T cells expressing LINGO1 CAR variants after 24 h co-culture with A673 cells at an effector-target ratio of 1:1. (FIG. 4G) Expansion of LINGO1 CAR T cells based on Li81 VLVH and T cels expressing a CAR without a binding domain (ΔscFv). (FIG. 4H) IFNγ and IL2 production as determined by ELISA and (FIG. 4I) anti-tumor activity as determined by luminescence-based cytotoxicity assay by LINGO1 CAR T cells after 24 h co-culture with Ewing sarcoma cell lines at different effector-target ratios. Data represent mean±SD from 3 technical replicates. Statistical significance was determined by two-sided Student's t test.
CAR T cells targeting LINGO1 for the treatment of Ewing sarcoma were developed.

| Binder | binding result |
| --- | --- |
| Li62 scFv, VHVL orientation (scFv, It was detected with an anti-FLAG/APC antibody, so it carried a FLAG tag; also called Li62 VHVL; LINGO1-specific scFv) scFv: EVQLLESGGGLVQPGGSLRLSCAASGFTFSIYPMFWVRQAPGKGLEWVSWIGPSGGITKYADSVKGRFTISRDNSKNTLYLQMNSLRAEDTATYYCAREGHNDWYFDLWGRGTLVTVSSGGGGSGGGGSGGGGSDIQMTQSPSFLSASVGDSVAITCRASQDISRYLAWYQQRPGKAPKLLIYDASNLQTGVPSRFSGSGSGTDFTFTITSLQPEDFGTYYCQQYDTLHPSFGPGTTVDIK | binds |
| Li81 scFv, VLVH orientation (scFv, It was detected with an anti-FLAG/APC antibody, so it carried a FLAG tag; also called Li81 VLVH; LINGO1-specific scFv) scFv: DIQMTQSPATLSLSPGERATLSCRASQSVSSYLAWYQQKPGQAPRLLIYDASNRATGIPARFSGSGSGTDFTLTISSLEPEDFAVYYCQQRSNWPMYTFGQGTKLEIKGGGGSGGGGSGGGGSEVQLLESGGGLVQPGGSLRLSCAASGFTFSAYEMKWVRQAPGKGLEWVSVIGPSGGFTFYADSVKGRFTISRDNSKNTLYLQMNSLRAEDTAVYYCATEGDNDAFDIWGQGTTVTVSS | binds |

Second part, the binder after the results:

| binding result | Binder |
| --- | --- |
| binds | Li62 scFv, VLVH orientation (scFv, It was detected with an anti-FLAG/APC antibody, so it carried a FLAG tag; also called Li62 VLVH; LINGO1-specific scFv) scFv: DIQMTQSPSFLSASVGDSVAITCRASQDISRYLAWYQQRPGKAPKLLIYDASNLQTGVPSRFSGSGSGTDFTFTITSLQPEDFGTYYCQQYDTLHPSFGPGTTVDIKGGGGSGGGGSGGGGSEVQLLESGGGLVQPGGSLRLSCAASGFTFSIYPMFWVRQAPGKGLEWVSWIGPSGGITKYADSVKGRFTISRDNSKNTLYLQMNSLRAEDTATYYCAREGHNDWYFDLWGRGTLVTVSS |
| binds | Li81 scFv, VHVL orientation (scFv, It was detected with an anti-FLAG/APC antibody, so it carried a FLAG tag; also called Li81 VHVL; LINGO1-specific scFv) scFv: EVQLLESGGGLVQPGGSLRLSCAASGFTFSAYEMKWVRQAPGKGLEWVSVIGPSGGFTFYADSVKGRFTISRDNSKNTLYLQMNSLRAEDTAVYYCATEGDNDAFDIWGQGTTVTVSSGGGGSGGGGSGGGGSDIQMTQSPATLSLSPGERATLSCRASQSVSSYLAWYQQKPGQAPRLLIYDASNRATGIPARFSGSGSGTDFTLTISSLEPEDFAVYYCQQRSNWPMYTFGQGTKLEIK |
